From the supplement of paper PMC10899765

Experiments:
Details in all cases: 20 nM; 72 h
MCF10A [1] = assay: percent viability (nuclei count relative to siNT); higher = more viable cells
Experimental: (§1)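 After 72 h, cells were fixed and stained with Hoechst and anti-fibrillarin, and nucleoli per nucleus were counted with CellProfiler. Values are plate-adjusted percent effect for the one-nucleolus and 5+ nucleoli phenotypes, normalised to siNT (0%) and to the positive controls siNOL11 or siKIF11 (100%), as the mean of biological triplicates. Percent viability is the nuclei count relative to siNT.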

MCF10A [2] = assay: 5+ nucleoli phenotype percent effect (relative to siNT 0% and siKIF11 100%); higher = more cells with five or more nucleoli
Experimental: as §1

MCF10A [3] = assay: one-nucleolus phenotype percent effect (relative to siNT 0% and siNOL11 100%); higher = more cells with one nucleolus (ribosome biogenesis inhibition)
Experimental: as §1

GGUGGGGGCUGUUGUUU [hsa-miR-4447]
percent viability (MCF10A [1]): 24.5% | 5+ nucleoli phenotype percent effect (MCF10A [2]): -20.8% | one-nucleolus phenotype percent effect (MCF10A [3]): 38.7%

AGGAGAAGUCGGGAAGGU [hsa-miR-5703]
percent viability (MCF10A [1]): 30.6% | 5+ nucleoli phenotype percent effect (MCF10A [2]): 33.6% | one-nucleolus phenotype percent effect (MCF10A [3]): -5.15%

AGGGCAUGUCCAGGGGGU [hsa-miR-4253]
percent viability (MCF10A [1]): 28.5% | 5+ nucleoli phenotype percent effect (MCF10A [2]): 17.7% | one-nucleolus phenotype percent effect (MCF10A [3]): 18.3%

CACACACUGCAAUUACUUUUGC [hsa-miR-603]
percent viability (MCF10A [1]): 60.9% | 5+ nucleoli phenotype percent effect (MCF10A [2]): 19.5% | one-nucleolus phenotype percent effect (MCF10A [3]): -5.16%

AGCAGUGUUUGUUUUGCCCACA [hsa-miR-6499-3p]
percent viability (MCF10A [1]): 30.3% | 5+ nucleoli phenotype percent effect (MCF10A [2]): -48% | one-nucleolus phenotype percent effect (MCF10A [3]): 16.7%

AGGGACUUUUGGGGGCAGAUGUG [hsa-miR-365a-5p]
percent viability (MCF10A [1]): 56% | 5+ nucleoli phenotype percent effect (MCF10A [2]): 58.6% | one-nucleolus phenotype percent effect (MCF10A [3]): -13.1%

UAGUAGACCGUAUAGCGUACG [hsa-miR-411-5p]
percent viability (MCF10A [1]): 69.2% | 5+ nucleoli phenotype percent effect (MCF10A [2]): 15.2% | one-nucleolus phenotype percent effect (MCF10A [3]): -6.18%

CCAAUUACCACUUCUUU [hsa-miR-4275]
percent viability (MCF10A [1]): 74.6% | 5+ nucleoli phenotype percent effect (MCF10A [2]): 23.8% | one-nucleolus phenotype percent effect (MCF10A [3]): -17.6%

CCCUGUUCUAUGCCCUGAGGGA [hsa-miR-1266-3p]
percent viability (MCF10A [1]): 90.7% | 5+ nucleoli phenotype percent effect (MCF10A [2]): 47.8% | one-nucleolus phenotype percent effect (MCF10A [3]): -19.3%

ACCUUCCUCUCCAUGGGUCUUU [hsa-miR-3667-3p]
percent viability (MCF10A [1]): 32% | 5+ nucleoli phenotype percent effect (MCF10A [2]): -21.3% | one-nucleolus phenotype percent effect (MCF10A [3]): 18.2%

GGGGGUCCCCGGUGCUCGGAUC [hsa-miR-615-5p]
percent viability (MCF10A [1]): 137% | 5+ nucleoli phenotype percent effect (MCF10A [2]): 33.1% | one-nucleolus phenotype percent effect (MCF10A [3]): -20%

UGUUGUACUUUUUUUUUUGUUC [hsa-miR-3613-5p]
percent viability (MCF10A [1]): 114% | 5+ nucleoli phenotype percent effect (MCF10A [2]): 4.98% | one-nucleolus phenotype percent effect (MCF10A [3]): -10.4%

UUGUCUGCUGAGUUUCC [hsa-miR-4288]
percent viability (MCF10A [1]): 31.9% | 5+ nucleoli phenotype percent effect (MCF10A [2]): -15.9% | one-nucleolus phenotype percent effect (MCF10A [3]): 27.6%

GGGGGCCGAUACACUGUACGAGA [hsa-miR-128-2-5p]
percent viability (MCF10A [1]): 91.1% | 5+ nucleoli phenotype percent effect (MCF10A [2]): 34.6% | one-nucleolus phenotype percent effect (MCF10A [3]): -25.2%

GCAGAUCAGGACUGUAACUCACC [hsa-miR-1288-5p]
percent viability (MCF10A [1]): 48.5% | 5+ nucleoli phenotype percent effect (MCF10A [2]): 31.1% | one-nucleolus phenotype percent effect (MCF10A [3]): -14.5%

CUUCUCUUCUCUCCUUCCCAG [hsa-miR-6809-3p]
percent viability (MCF10A [1]): 31% | 5+ nucleoli phenotype percent effect (MCF10A [2]): -23.7% | one-nucleolus phenotype percent effect (MCF10A [3]): 17.9%

AGCUACAUUGUCUGCUGGGUUUC [hsa-miR-221-3p]
percent viability (MCF10A [1]): 59.9% | 5+ nucleoli phenotype percent effect (MCF10A [2]): -17.8% | one-nucleolus phenotype percent effect (MCF10A [3]): 4%

AGAAGGGAAGAUGGUGAC [hsa-miR-7515]
percent viability (MCF10A [1]): 42.5% | 5+ nucleoli phenotype percent effect (MCF10A [2]): 4.41% | one-nucleolus phenotype percent effect (MCF10A [3]): -2.73%

CAAAAGUGAUCGUGGUUUUUG [hsa-miR-548t-5p]
percent viability (MCF10A [1]): 51.5% | 5+ nucleoli phenotype percent effect (MCF10A [2]): 9.99% | one-nucleolus phenotype percent effect (MCF10A [3]): -10.3%

AGCGAGGUUGCCCUUUGUAUAU [hsa-miR-381-5p]
percent viability (MCF10A [1]): 52.5% | 5+ nucleoli phenotype percent effect (MCF10A [2]): 0.715% | one-nucleolus phenotype percent effect (MCF10A [3]): -12.7%

AGGAUGAGCAAAGAAAGUAGAUU [hsa-miR-1255a]
percent viability (MCF10A [1]): 128% | 5+ nucleoli phenotype percent effect (MCF10A [2]): 55.6% | one-nucleolus phenotype percent effect (MCF10A [3]): -24.4%

GGAGGAACCUUGGAGCUUCGGC [hsa-miR-3928]
percent viability (MCF10A [1]): 50% | 5+ nucleoli phenotype percent effect (MCF10A [2]): 45.7% | one-nucleolus phenotype percent effect (MCF10A [3]): -14.5%

CUGUGCGUGUGACAGCGGCUGA [hsa-miR-210]
percent viability (MCF10A [1]): 56.6% | 5+ nucleoli phenotype percent effect (MCF10A [2]): -13.9% | one-nucleolus phenotype percent effect (MCF10A [3]): -1.99%

CGCUCUAGGCACCGCAGCA [hsa-miR-1301-5p]
percent viability (MCF10A [1]): 77.5% | 5+ nucleoli phenotype percent effect (MCF10A [2]): 95.7% | one-nucleolus phenotype percent effect (MCF10A [3]): -24.1%

UCCCACUACUUCACUUGUGA [hsa-miR-4301]
percent viability (MCF10A [1]): 45.1% | 5+ nucleoli phenotype percent effect (MCF10A [2]): 60.9% | one-nucleolus phenotype percent effect (MCF10A [3]): -19.4%

CGUCCCACCCCCCACUCCUGU [hsa-miR-4433-5p]
percent viability (MCF10A [1]): 40.9% | 5+ nucleoli phenotype percent effect (MCF10A [2]): 25.6% | one-nucleolus phenotype percent effect (MCF10A [3]): -1.75%

GUGGACCAGGAUGGCAAGGGCU [hsa-miR-4776-5p]
percent viability (MCF10A [1]): 77.7% | 5+ nucleoli phenotype percent effect (MCF10A [2]): 14.5% | one-nucleolus phenotype percent effect (MCF10A [3]): -5.58%

GUAAGGGACCGGAGAGUAGGA [hsa-miR-6892-5p]
percent viability (MCF10A [1]): 22.3% | 5+ nucleoli phenotype percent effect (MCF10A [2]): -29% | one-nucleolus phenotype percent effect (MCF10A [3]): 20.5%

CUGUCCUAAGGUUGUUGAGUU [hsa-miR-676-3p]
percent viability (MCF10A [1]): 20.8% | 5+ nucleoli phenotype percent effect (MCF10A [2]): 29.3% | one-nucleolus phenotype percent effect (MCF10A [3]): -12%

CCGGCAUGUCCAGGGCA [hsa-miR-4304]
percent viability (MCF10A [1]): 25.4% | 5+ nucleoli phenotype percent effect (MCF10A [2]): 3.17% | one-nucleolus phenotype percent effect (MCF10A [3]): 14.3%

UGAUCUCACCGCUGCCUCCUUC [hsa-miR-4695-3p]
percent viability (MCF10A [1]): 93.9% | 5+ nucleoli phenotype percent effect (MCF10A [2]): 12.8% | one-nucleolus phenotype percent effect (MCF10A [3]): -9.6%

AUGCGGACCUGGGUUAGCGGAGU [hsa-miR-4754]
percent viability (MCF10A [1]): 38.8% | 5+ nucleoli phenotype percent effect (MCF10A [2]): -38.9% | one-nucleolus phenotype percent effect (MCF10A [3]): 47.4%

UCUAGAGGAAGCACUUUCUGUUU [hsa-miR-520g-5p]
percent viability (MCF10A [1]): 67.5% | 5+ nucleoli phenotype percent effect (MCF10A [2]): 34.9% | one-nucleolus phenotype percent effect (MCF10A [3]): -24.2%

CCCGGACAGGCGUUCGUGCGACGU [hsa-miR-3687]
percent viability (MCF10A [1]): 86.1% | 5+ nucleoli phenotype percent effect (MCF10A [2]): 26.3% | one-nucleolus phenotype percent effect (MCF10A [3]): -20.6%

GGGGGGGCAGGAGGGGCUCAGGG [hsa-miR-328-5p]
percent viability (MCF10A [1]): 129% | 5+ nucleoli phenotype percent effect (MCF10A [2]): 33.9% | one-nucleolus phenotype percent effect (MCF10A [3]): -28.4%

GAUCCAUCUCUGCCUGUAUUGGC [hsa-miR-7151-5p]
percent viability (MCF10A [1]): 80.6% | 5+ nucleoli phenotype percent effect (MCF10A [2]): -8.39% | one-nucleolus phenotype percent effect (MCF10A [3]): 5.88%

UUCCGCCAGUCGGUGGCCGG [hsa-miR-6084]
percent viability (MCF10A [1]): 90.2% | 5+ nucleoli phenotype percent effect (MCF10A [2]): 0.691% | one-nucleolus phenotype percent effect (MCF10A [3]): -5.3%

AAAAGUACUUGCGGAUUU [hsa-miR-548av-5p]
percent viability (MCF10A [1]): 77.9% | 5+ nucleoli phenotype percent effect (MCF10A [2]): 9.21% | one-nucleolus phenotype percent effect (MCF10A [3]): -23.4%

CUAUACAACUUACUACUUUCCC [hsa-miR-98-3p]
percent viability (MCF10A [1]): 59.1% | 5+ nucleoli phenotype percent effect (MCF10A [2]): 45.5% | one-nucleolus phenotype percent effect (MCF10A [3]): -31.6%

AAGGCCCGGGCUUUCCUCCCAG [hsa-miR-4747-3p]
percent viability (MCF10A [1]): 29.2% | 5+ nucleoli phenotype percent effect (MCF10A [2]): -14.1% | one-nucleolus phenotype percent effect (MCF10A [3]): 31.7%

GGAUCCGAGUCACGGCACCA [hsa-miR-4454]
percent viability (MCF10A [1]): 56% | 5+ nucleoli phenotype percent effect (MCF10A [2]): 0.148% | one-nucleolus phenotype percent effect (MCF10A [3]): -14.9%

UUCUGCUGCCGGCCAAGGC [hsa-miR-6071]
percent viability (MCF10A [1]): 27.8% | 5+ nucleoli phenotype percent effect (MCF10A [2]): -25.7% | one-nucleolus phenotype percent effect (MCF10A [3]): 22.1%

GUGGGGGAGAGGCUGUC [hsa-miR-1275]
percent viability (MCF10A [1]): 20.5% | 5+ nucleoli phenotype percent effect (MCF10A [2]): -28.2% | one-nucleolus phenotype percent effect (MCF10A [3]): 43%

GACACGGGCGACAGCUGCGGCCC [hsa-miR-602]
percent viability (MCF10A [1]): 91.9% | 5+ nucleoli phenotype percent effect (MCF10A [2]): 45.6% | one-nucleolus phenotype percent effect (MCF10A [3]): -18.7%

AAAAUGGUUCCCUUUAGAGUGU [hsa-miR-522-3p]
percent viability (MCF10A [1]): 66.3% | 5+ nucleoli phenotype percent effect (MCF10A [2]): 28.6% | one-nucleolus phenotype percent effect (MCF10A [3]): -12.4%
